According to US20050164323A1, “Methods of treating asthma” (Wyeth, priority 2003, published 2005):

How the values were obtained:
[1] = substrate: Nc1ncnc2c1ncn2[C@@H]1O[C@H](COP(=O)(O)OP(=O)(O)OP(=O)(O)O)[C@@H](O)[C@H]1O; experiment: purified protein, by the assay type; details: pH 7.5, 25.0 °C
[2] = substrate: CC(C)C[C@H](NC(=O)[C@H](CO)NC(=O)CNC(=O)[C@H](CCCCN)NC(=O)[C@H](CCCNC(=N)N)NC(=O)[C@H](C)NC(=O)[C@@H](N)Cc1ccccc1)C(=O)N[C@@H](CCCNC(=N)N)C(=O)N[C@@H](CCC(N)=O)C(=O)O; experiment: coupled PK/LDH assay: steady-state kinetics, product and dead-end inhibition of PKC-θ KD; format: biochemical, human; details: other: varied peptide substrate, saturating ATP, pH 7.5

B1: PKC-θ KD (Homo sapiens) (protein)
chain: MGPELNKERPSLQIKLKIEDFILHKMLGKGSFGKVFLAEFKKTNQFFAIKALKKDVVLMDDDVECTMVEKRVLSLAWEHPFLTHMFCTFQTKENLFFVMEYLNGGDLMYHIQSCHKFDLSRATFYAAEIILGLQFLHSKGIVYRDLKLDNILLDKDGHIKIADFGMCKENMLGDAKTNTFCGTPDYIAPEILLGQKYNHSVDWWSFGVLLYEMLIGQSPFHGQDEEELFHSIRMDNPFYPRWLEKEAKDLLVKLFVREPEKRLGVRGDIRQHPLFREINWEELERKEIDPPFRPKVKSPFDCSNFDKEFLNEKPRLSFADRALINSMDQNMFRNFSFMNPGMERLISHHHHHH
notes: PKC-θ KD (amino acid residues 362 to 706) was cloned into a pET16b expression vector; hexa-histidine (C); Met-Gly (non-native N-terminal residues) (N); made in house; host or cells: E. coli BL21-DE3 (pET16b)
Km ([1]; other: 0 mM NaCl): 25 µM
Km ([1]; other: initial velocity with peptide 1, 625 mM NaCl): 321 ± 19 µM
Km ([1]; other: initial velocity, varied ATP vs peptide 3, 100 mM NaCl): 118 ± 17 µM
kcat/Km [2]: 2.7e+06 M⁻¹ s⁻¹
